This assay addresses T1, MAGE-A4 (peptide named MA4-286) peptide on HLA-A*02:01 (human).
T1 peptide: KVLEHVVRV
Kind of assay: multimer staining.

B1: MA4-286 G6 TCR (TCR, V domains shown)
Valpha: AQTVTQSQPEMSVQEAETVTLSCTYDTSENNYYLFWYKQPPSRQMILVIRQEAYKQQNATENRFSVNFQKAAKSFSLKISDSQLGDTAMYFCASHSGAGSYQLTFGKGTKLSVIP
Vbeta: DTGVSQDPRHKITKRGQNVTFRCDPISEHNRLYWYRQTLGQGPEFLTYFQNEAQLEKSRLLSDRFSAERPKGSFSTLEIQRTEQGDSAMYLCASSPTGGFYEQYFGPGTRLTVT
B1: the binding result is reported as “recognises”.

These data come from patent publication US20260125448A1 (published 2026).
